The record followed here is patent US20150064134A1.

Some targets named below: Rsk3(h) (human) (UniProt Q15349); PAK4(h) (human) (UniProt O96013); AMPKα1(h) (human) (UniProt Q13131); CK1δ(h) (human) (UniProt P48730); Rsk4(h) (human) (UniProt Q9UK32); EphB2(h) (human) (UniProt P29323).
Holding throughout (assay): cell-based or functional assay
For another assay, the target named is T1, IKKα(h) (human) (UniProt O15111).
T1 sequence (looked up): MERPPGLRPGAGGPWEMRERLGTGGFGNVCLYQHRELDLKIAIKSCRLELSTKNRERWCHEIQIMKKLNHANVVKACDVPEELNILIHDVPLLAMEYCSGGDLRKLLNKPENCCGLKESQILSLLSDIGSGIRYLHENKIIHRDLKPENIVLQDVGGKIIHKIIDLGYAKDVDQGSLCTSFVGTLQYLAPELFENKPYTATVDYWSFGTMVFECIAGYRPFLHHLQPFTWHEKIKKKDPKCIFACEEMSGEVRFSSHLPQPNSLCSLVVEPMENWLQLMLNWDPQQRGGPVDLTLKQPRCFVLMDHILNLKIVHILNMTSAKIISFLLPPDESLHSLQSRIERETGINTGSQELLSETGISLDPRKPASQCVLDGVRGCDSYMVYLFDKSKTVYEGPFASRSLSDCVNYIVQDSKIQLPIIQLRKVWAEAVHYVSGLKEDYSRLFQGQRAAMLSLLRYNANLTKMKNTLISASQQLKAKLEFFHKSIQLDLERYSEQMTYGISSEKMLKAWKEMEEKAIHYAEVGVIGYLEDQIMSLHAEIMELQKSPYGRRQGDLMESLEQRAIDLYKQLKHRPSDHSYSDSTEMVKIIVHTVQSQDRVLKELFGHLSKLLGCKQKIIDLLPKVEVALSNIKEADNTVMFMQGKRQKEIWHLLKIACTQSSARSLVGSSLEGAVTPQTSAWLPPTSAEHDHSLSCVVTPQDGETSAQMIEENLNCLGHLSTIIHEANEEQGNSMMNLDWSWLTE

Another assay concerns the target T2, PKCζ(h) (human) (UniProt Q05513).
T2 sequence (looked up): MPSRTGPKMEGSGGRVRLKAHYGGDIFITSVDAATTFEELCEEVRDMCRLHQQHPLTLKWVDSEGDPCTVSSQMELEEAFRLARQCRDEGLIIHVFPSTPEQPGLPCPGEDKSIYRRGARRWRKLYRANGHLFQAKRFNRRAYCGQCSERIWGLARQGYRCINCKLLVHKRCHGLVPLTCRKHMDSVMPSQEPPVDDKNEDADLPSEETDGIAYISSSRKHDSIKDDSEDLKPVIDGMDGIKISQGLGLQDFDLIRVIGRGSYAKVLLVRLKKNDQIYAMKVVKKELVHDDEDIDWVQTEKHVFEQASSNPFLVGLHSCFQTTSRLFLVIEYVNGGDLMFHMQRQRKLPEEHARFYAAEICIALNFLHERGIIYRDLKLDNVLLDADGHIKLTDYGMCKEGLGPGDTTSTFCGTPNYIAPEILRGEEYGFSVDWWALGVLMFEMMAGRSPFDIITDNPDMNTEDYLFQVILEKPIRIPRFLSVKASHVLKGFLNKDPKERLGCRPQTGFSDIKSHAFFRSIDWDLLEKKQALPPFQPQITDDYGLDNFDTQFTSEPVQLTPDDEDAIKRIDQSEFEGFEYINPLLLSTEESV

The next assay concerns the target T3, DCAMKL2(h) (human) (UniProt Q8N568).
T3 sequence (looked up): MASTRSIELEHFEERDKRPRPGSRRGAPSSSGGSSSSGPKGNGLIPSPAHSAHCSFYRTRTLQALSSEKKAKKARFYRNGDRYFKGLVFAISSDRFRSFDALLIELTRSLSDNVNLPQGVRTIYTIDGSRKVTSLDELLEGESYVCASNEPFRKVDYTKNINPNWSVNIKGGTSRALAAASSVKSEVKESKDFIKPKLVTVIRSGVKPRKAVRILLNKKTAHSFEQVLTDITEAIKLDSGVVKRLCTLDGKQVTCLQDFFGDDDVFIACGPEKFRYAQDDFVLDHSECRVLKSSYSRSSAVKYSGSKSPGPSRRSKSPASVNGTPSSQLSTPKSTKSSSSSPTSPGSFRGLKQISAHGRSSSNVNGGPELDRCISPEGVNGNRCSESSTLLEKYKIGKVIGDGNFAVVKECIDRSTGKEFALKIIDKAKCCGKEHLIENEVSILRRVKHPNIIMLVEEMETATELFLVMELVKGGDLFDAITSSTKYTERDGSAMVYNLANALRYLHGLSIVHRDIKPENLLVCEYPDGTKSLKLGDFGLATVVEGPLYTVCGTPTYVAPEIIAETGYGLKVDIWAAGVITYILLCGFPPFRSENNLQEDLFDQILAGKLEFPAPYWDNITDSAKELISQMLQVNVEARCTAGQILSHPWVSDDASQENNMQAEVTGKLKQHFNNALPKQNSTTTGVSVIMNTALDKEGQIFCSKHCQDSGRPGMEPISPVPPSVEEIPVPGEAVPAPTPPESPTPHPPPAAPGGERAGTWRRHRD

In a further assay the target is T4, EphA5(h) (human) (UniProt P54756).
T4 sequence (looked up): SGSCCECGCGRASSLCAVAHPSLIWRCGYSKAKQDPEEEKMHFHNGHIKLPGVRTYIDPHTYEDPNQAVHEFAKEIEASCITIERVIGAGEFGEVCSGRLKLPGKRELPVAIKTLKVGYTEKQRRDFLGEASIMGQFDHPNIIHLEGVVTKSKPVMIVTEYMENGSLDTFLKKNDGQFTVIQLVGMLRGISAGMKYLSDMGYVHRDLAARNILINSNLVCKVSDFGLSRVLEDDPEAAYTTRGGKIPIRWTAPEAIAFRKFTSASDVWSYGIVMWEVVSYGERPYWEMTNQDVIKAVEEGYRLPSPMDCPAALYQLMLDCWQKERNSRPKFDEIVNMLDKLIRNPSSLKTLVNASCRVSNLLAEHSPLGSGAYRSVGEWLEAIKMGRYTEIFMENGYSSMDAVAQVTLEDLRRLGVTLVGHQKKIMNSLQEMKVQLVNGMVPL

Sequence of EphB2(h) (human) (P29323 565-986 limits assumed): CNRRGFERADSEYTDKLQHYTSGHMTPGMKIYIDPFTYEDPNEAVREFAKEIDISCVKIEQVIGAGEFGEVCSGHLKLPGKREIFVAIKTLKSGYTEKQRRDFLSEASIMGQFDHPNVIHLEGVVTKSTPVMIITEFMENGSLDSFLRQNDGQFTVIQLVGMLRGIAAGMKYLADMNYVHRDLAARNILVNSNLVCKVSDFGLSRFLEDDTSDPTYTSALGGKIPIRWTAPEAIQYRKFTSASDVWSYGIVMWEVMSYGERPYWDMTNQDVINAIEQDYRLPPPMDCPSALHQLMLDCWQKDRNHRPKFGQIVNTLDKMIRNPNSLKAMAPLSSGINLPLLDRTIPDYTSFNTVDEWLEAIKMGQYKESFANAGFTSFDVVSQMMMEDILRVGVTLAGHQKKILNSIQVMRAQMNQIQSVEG
Sequence of Rsk3(h) (human) (Q15349 whole entry): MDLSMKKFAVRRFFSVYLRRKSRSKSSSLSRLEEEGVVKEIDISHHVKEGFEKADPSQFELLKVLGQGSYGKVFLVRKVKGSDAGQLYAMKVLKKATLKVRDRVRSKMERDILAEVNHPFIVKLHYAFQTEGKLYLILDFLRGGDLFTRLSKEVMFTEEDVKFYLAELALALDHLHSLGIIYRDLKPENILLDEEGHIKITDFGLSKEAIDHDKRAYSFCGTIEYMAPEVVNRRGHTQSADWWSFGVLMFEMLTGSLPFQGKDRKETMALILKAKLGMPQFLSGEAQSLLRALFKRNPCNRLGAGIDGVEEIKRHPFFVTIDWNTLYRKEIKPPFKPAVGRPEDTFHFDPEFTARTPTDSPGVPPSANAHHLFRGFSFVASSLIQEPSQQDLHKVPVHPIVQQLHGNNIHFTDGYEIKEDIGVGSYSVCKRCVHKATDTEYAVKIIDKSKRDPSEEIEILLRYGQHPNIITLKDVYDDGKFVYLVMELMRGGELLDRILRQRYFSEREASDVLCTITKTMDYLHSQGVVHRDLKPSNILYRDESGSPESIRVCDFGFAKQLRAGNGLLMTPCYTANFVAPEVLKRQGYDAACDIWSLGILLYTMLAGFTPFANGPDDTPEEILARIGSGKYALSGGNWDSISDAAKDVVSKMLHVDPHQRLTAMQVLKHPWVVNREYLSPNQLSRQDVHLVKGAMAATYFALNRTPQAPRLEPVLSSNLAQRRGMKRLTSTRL
Sequence of Rsk4(h) (human) (Q9UK32 whole entry): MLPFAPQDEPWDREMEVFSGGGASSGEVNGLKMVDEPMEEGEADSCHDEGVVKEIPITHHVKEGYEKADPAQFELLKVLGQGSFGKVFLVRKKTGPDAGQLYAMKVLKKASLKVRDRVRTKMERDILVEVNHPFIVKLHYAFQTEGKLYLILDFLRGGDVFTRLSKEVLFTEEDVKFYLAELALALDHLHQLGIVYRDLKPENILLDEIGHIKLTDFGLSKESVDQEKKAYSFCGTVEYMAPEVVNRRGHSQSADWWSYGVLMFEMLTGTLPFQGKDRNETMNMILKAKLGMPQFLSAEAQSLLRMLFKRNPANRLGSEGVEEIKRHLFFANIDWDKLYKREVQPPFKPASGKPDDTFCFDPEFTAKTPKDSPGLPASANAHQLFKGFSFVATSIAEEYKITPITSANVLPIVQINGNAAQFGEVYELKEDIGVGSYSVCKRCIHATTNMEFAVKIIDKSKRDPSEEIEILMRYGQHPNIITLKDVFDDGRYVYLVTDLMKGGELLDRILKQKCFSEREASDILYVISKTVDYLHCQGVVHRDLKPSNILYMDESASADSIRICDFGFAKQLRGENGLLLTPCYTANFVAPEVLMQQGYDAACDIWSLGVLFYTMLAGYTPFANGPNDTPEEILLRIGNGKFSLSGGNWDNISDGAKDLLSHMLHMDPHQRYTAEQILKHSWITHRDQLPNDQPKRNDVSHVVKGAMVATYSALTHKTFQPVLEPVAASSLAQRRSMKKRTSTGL

As to MMI-0500 (peptide), the % activity at 100 µM came out at 23% in the assay with Rsk3(h) (human); 86% with PAK4(h) (human); 35% with AMPKα1(h) (human); 50% with IKKα(h) (human); 78% with CK1δ(h) (human); 7% with PKCζ(h) (human). The % activity at 100 µM with Rsk4(h) (human) was 29%; in the assay with EphB2(h) (human) it was 70%; with DCAMKL2(h) (human), 56%; in the assay with EphA5(h) (human), 42%.

Regarding MMI-0300 (peptide), the % activity at 100 µM with Rsk3(h) (human) came out at 76%; in the assay with PAK4(h) (human), 94%; with AMPKα1(h) (human) it was 71%; with IKKα(h) (human) it was 93%; in the assay with CK1δ(h) (human), 92%; with PKCζ(h) (human) it was 81%. Moreover, the % activity at 100 µM amounted to 90% with Rsk4(h) (human), 18% with EphB2(h) (human), 81% with DCAMKL2(h) (human) and 18% with EphA5(h) (human).

On to MMI-0400 (peptide), for which the % activity at 100 µM in the assay with Rsk3(h) (human) was 71%; with PAK4(h) (human) it was 89%; in the assay with AMPKα1(h) (human), 87%; with IKKα(h) (human) it was 87%; in the assay with CK1δ(h) (human), 93%; with PKCζ(h) (human) it was 75%. The % activity at 100 µM with Rsk4(h) (human) was 91%; with EphB2(h) (human), 22%; in the assay with DCAMKL2(h) (human), 70%; with EphA5(h) (human), 24%.
